Measurements as given in publication PMC4019675.

Molecular target: FtsZ-Alexa488 (Cys-FtsZ labeled with Alexa488-maleimide)
Experiment: TIRF microscopy, single particle tracking

average lifetime of FtsZ monomers in the filament network: 7.16 s
Substance: FtsZ-Cy5 (Cys-FtsZ labeled with Cy5-maleimide) (natural protein)
